The text below walks through data of paper PMC3950713.

What is called Kd is the concentration at which binding is half-saturated. Low readings indicate tighter binding, high ones weaker binding.

What all share (experiment): MST
One data set concerns the target T1, HpDprA(5-217)H8E (Helicobacter pylori 26695, UniProt O25100 5-217, H8E).
T1 sequence: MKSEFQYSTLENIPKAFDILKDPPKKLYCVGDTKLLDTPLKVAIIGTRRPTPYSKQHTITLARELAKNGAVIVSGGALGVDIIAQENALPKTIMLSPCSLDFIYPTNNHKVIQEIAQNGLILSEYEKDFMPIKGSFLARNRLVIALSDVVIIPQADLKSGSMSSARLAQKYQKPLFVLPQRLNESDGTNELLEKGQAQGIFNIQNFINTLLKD

In a further data set the target is T2, HpDprA(5-217)R52E/K137E (Helicobacter pylori 26695, UniProt O25100 5-217, R52E;K137E).
T2 sequence: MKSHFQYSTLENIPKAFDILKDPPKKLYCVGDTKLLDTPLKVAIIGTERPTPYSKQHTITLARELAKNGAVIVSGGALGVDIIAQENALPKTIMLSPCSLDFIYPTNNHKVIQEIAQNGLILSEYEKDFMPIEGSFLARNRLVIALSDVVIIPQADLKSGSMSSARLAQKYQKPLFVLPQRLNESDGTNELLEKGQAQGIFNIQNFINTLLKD

Another data set concerns the target T3, HpDprA(5-217)F140E (Helicobacter pylori 26695, UniProt O25100 5-217, F140E).
T3 sequence: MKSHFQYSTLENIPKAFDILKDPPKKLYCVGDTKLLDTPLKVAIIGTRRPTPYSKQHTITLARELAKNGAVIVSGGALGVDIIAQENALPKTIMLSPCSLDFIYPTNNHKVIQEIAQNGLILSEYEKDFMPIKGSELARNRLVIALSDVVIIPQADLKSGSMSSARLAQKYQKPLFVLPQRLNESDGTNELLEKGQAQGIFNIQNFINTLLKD

The next data set has as its target T4, HpDprA(5-217)K137E/R143E (Helicobacter pylori 26695, UniProt O25100 5-217, K137E;R143E).
T4 sequence: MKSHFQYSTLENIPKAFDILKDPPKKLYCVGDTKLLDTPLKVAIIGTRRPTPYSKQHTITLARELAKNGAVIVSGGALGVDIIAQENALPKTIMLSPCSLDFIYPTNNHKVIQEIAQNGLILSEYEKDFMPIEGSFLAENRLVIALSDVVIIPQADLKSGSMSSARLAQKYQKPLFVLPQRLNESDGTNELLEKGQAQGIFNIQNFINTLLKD

Another data set concerns the target T5, HpDprA(5-217)R52E (Helicobacter pylori 26695, UniProt O25100 5-217, R52E).
T5 sequence: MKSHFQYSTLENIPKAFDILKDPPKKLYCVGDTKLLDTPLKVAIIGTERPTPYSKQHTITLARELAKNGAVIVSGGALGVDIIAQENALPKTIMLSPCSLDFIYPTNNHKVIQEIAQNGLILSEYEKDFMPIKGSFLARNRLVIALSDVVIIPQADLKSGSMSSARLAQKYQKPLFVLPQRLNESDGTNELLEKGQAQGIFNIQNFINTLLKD

A further data set deals with T6, HpDprA full-length (Helicobacter pylori 26695, UniProt O25100 1-270).
T6 sequence: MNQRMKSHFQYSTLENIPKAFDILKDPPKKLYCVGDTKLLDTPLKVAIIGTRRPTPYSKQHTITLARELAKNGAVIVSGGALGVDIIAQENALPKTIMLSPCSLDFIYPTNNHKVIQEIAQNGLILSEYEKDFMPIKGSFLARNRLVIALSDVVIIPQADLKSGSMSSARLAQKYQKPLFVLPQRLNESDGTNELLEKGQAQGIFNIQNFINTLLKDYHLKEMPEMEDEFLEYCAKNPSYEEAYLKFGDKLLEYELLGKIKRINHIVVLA

For the next data set, the target named is T7, HpDprA(5-217)Y11E (Helicobacter pylori 26695, UniProt O25100 5-217, Y11E).
T7 sequence: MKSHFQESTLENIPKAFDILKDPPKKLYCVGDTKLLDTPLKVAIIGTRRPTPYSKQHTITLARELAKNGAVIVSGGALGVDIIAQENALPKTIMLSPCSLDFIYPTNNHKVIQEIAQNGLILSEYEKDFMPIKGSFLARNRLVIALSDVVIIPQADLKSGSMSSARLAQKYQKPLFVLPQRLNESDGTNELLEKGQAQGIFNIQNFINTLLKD

B1: dT35 (ssDNA)
DNA: TTTTTTTTTTTTTTTTTTTTTTTTTTTTTTTTTTT
Consider B1, for which the Kd in the data set with HpDprA(5-217)H8E came to 66.3 ± 0.721 nM; with HpDprA(5-217)F140E it was 556 ± 28 nM; in the data set with HpDprA(5-217)R52E it was 9950 ± 367 nM; with HpDprA full-length, 2.26 ± 0.167 nM; with HpDprA(5-217)Y11E, 55.9 ± 1.82 nM. The binding result in the data set with HpDprA(5-217)R52E/K137E and with HpDprA(5-217)K137E/R143E was “no binding” in each case.
